# B1: FS22-172-003/HelD1.3 (bispecific antibody, human IgG1, kappa, L234A L235A)
# heavy: QVQLQESGPGLVRPSQTLSLTCTVSGSTFSGYGVNWVRQPPGRGLEWIGMIWGDGNTDYNSALKSRVTMLVDTSKNQFSLRLSSVTAADTAVYYCARERDYRLDYWGQGSLVTVSSASTKGPSVFPLAPSSKSTSGGTAALGCLVKDYFPEPVTVSWNSGALTSGVHTFPAVLQSSGLYSLSSVVTVPSSSLGTQTYICNVNHKPSNTKVDKKVEPKSCDKTHTCPPCPAPEAAGGPSVFLFPPKPKDTLMISRTPEVTCVVVDVSHEDPEVKFNWYVDGVEVHNAKTKPREEQYNSTYRVVSVLTVLHQDWLNGKEYKCKVSNKALPAPIEKTISKAKGQPREPQVYTLPPSRDELPYIIPPYNQVSLTCLVKGFYPSDIAVEWESNGQPENNYKTTPPVLDSDGSFFLYSKLTVGADRWLEGNVFSCSVMHEALHNHYTQKSLSLSPG
# light: DIQMTQSPASLSASVGETVTITCRASGNIHNYLAWYQQKQGKSPQLLVYNAKTLADGVPSRFSGSGSGTQYSLKINSLQPEDFGSYYCQHFWSTPRTFGGGTKLEIKRTVAAPSVFIFPPSDEQLKSGTASVVCLLNNFYPREAKVQWKVDNALQSGNSQESVTEQDSKDSTYSLSSTLTLSKADYEKHKVYACEVTHQGLSSPVTKSFNRGEC
# notes: IgG1
# B2: FS22m-063 in mock mAb^2 (HelD1.3) format (bispecific antibody, human IgG1, kappa, L234A L235A)
# heavy: QVQLQESGPGLVRPSQTLSLTCTVSGSTFSGYGVNWVRQPPGRGLEWIGMIWGDGNTDYNSALKSRVTMLVDTSKNQFSLRLSSVTAADTAVYYCARERDYRLDYWGQGSLVTVSSASTKGPSVFPLAPSSKSTSGGTAALGCLVKDYFPEPVTVSWNSGALTSGVHTFPAVLQSSGLYSLSSVVTVPSSSLGTQTYICNVNHKPSNTKVDKKVEPKSCDKTHTCPPCPAPEAAGGPSVFLFPPKPKDTLMISRTPEVTCVVVDVSHEDPEVKFNWYVDGVEVHNAKTKPREEQYNSTYRVVSVLTVLHQDWLNGKEYKCKVSNKALPAPIEKTISKAKGQPREPQVYTLPPSRDEPYWSYVSLTCLVKGFYPSDIAVEWESNGQPENNYKTTPPVLDSDGSFFLYSKLTVMNYRWELGNVFSCSVMHEALHNHYTQKSLSLSPG
# light: B1 light
# notes: The entries are those of FS22m-063-AA/HelD1.3 (with LALA); also called FS22m-063-AA/HelD1.3; FS22m-063/HeID1.3
# B3: mCD137-mFc-Avi (Fc fusion, not shown: a dimerising Fc or GST; small tags and cut ends)
# chain: VQNSCDNCQPGTFCRKYNPVCKSCPPSTFSSIGGQPNCNICRVCAGYFRFKKFCSSTHNAECECIEGFHCLGPQCTRCEKDCRPGQELTKQGCKTCSLGTFNDQNGTGVCRPWTNCSLDGRSVLKTGTTEKDVVCGPPVVSFSPSTTISVTPEGGPGGHSLQVL
# modifications: one biotin on each Avi tag in the biotinylated form
# notes: also called mouse dimeric CD137; mouse CD137-mFc-Avi
# Key:
# [1] = target: human CD137 expressed on cells (human, UniProt Q07011 24-255); assay: cell-based or functional assay
# [2] = target: T1, human GITR (human, UniProt Q9Y5U5 26-161, limits assumed); assay: SPR, receptor amine-coupled ~1000 RU
# T1 sequence (looked up): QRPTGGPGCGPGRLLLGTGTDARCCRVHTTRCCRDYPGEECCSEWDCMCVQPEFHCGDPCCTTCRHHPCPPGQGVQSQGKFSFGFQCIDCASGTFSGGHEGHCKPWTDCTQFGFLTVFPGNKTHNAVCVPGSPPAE
# Procedure: (§1) The specificity of the anti-human CD137 Fcabs for human CD137 compared to other related TNFSFR family members was tested. 8 of the Fcabs were tested in mock mAb^2 (HelD1.3) format and measured by SPR in a Biacore T200 (GE Healthcare) by testing for binding to other human TNFRSF receptors: CD40, OX40 and GITR. Amine coupling (amine coupling kit, GE Healthcare, BR-1000-50) was used to coat human CD40, GITR and OX40 to approximately 1000 RU in Biacore CM5 chips (GE Healthcare, cat no 29149603). […] The chip was regenerated by injection of 10 mM glycine pH 2.5 for 12 s at 30 µl/min. Antibodies specific to the different TNFRSF members were used as positive controls to verify Biacore chip coating. Data was double reference subtracted and analysed using BIAevaluation 3.2 software.
# [3] = target: human CD40 (human, UniProt P25942 21-193); assay: SPR, receptor amine-coupled ~1000 RU
# Procedure: as §1
# [4] = target: T2, human OX40 (human, UniProt P43489 29-216); assay: SPR, receptor amine-coupled ~1000 RU
# T2 sequence (looked up): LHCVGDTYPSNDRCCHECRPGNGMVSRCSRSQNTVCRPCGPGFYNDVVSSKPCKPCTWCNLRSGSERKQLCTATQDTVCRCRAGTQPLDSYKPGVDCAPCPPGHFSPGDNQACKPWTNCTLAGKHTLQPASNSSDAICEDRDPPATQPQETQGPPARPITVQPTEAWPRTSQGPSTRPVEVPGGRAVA
# Procedure: as §1
# [5] = target: T3, hCD137-Avi-His (human, UniProt Q07011 24-186, single biotin on the Avi tag in the biotinylated form); assay: SPR, mAb2 captured by anti-human Fab, antigen in solution
# T3 construct: Monomer; also called human monomeric CD137; human CD137-Avi-His
# Procedure: (§2) Each mAb^2 was captured to approximately 150 RU by injecting a 3 µg/ml solution of mAb^2 diluted in HBS-EP+buffer (GE Healthcare #BR1006-69) for 60 seconds at 30 µl/min. Then different concentrations of human, cyno or mouse CD137 antigen (unbiotinylated human, cyno or mouse CD137-mFc-Avi or human CD137-Avi-His) in HBS-EP+buffer were flowed over the chip for 3 min at 60 µl/min and then allowed to dissociate for 10 minutes. After each antigen concentration the chip was regenerated by injecting 10 mM glycine pH 2.1 at a flow rate of 30 µl/min for 30 seconds. Buffer HBS-EP+ was injected before the highest concentration of antigen and after the lowest concentration of antigen for reference subtraction, and one of the concentrations at random was repeated twice. The binding kinetics were fit with a 1:1 Langmuir model to generate equilibrium binding constants (K_D) for each sample. Data analysis was performed with BiaEvaluation software version 3.2.
# [6] = target: T4, cCD137-mFc-Avi (cynomolgus; mouse, one biotin on each Avi tag in the biotinylated form); assay: as above
# T4 construct: also called cynomolgus dimeric CD137; cyno CD137-mFc-Avi
# T4 chain: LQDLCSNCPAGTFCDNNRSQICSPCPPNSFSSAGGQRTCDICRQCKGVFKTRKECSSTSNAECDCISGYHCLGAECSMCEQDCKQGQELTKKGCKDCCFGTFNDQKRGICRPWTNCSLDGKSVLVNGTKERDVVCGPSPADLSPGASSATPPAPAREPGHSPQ
# Procedure: as §2
# [7] = target: T5, hCD137-mFc-Avi (human; mouse, UniProt Q07011 24-186, one biotin on each Avi tag in the biotinylated form); assay: as above
# T5 construct: also called human dimeric CD137; human CD137-mFc-Avi
# Procedure: as §2
# [8] = target: mouse CD40 (mouse, UniProt P27512 24-193, limits assumed, chemically biotinylated (EZ-Link Sulfo-NHS-SS-Biotin)); assay: BLI (Octet), biotinylated receptor on streptavidin sensors
# Procedure: (§3) The specificity of the anti-mouse CD137 Fcabs for mouse CD137 were tested in HeID1.3 "mock" mAb² format and measured by BLI in an Octet QKe system by testing for binding of the Fcabs to other mouse TNFRSF receptors (CD40, OX40, GITR). Streptavidin biosensors (PALL ForteBio 18-5021) to coat 10 ng/μl mouse CD40, GITR, OX40 receptors (all obtained from R&D Systems and biotinylated using an EZ-Link Sulfo-NHS-SS-Biotin kit from Thermoscientific #21328). Anti-mouse CD137 Fcabs in mock mAb² format were diluted 1:1 in kinetic buffer (PALL 18-1092) to a final concentration of at least 1 μM. Antigen-coated sensors were dipped into the mAb² solutions for 180 seconds followed by 180 seconds in 1× kinetic buffer. Antibodies for each of the TNFRSF receptors were used as positive controls.
# [9] = target: T6, mouse GITR (mouse, UniProt O35714 20-153, limits assumed, chemically biotinylated (EZ-Link Sulfo-NHS-SS-Biotin)); assay: as above
# T6 sequence (looked up): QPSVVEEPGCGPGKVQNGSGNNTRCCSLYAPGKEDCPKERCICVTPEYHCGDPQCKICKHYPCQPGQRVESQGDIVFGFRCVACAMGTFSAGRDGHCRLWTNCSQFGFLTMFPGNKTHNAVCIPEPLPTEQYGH
# Procedure: as §3
# [10] = target: mouse CD137 expressed on cells (mouse, UniProt P20334 24-256); assay: cell-based or functional assay
# [11] = target: T7, mouse CD137 ligand on DO11.10 cells (mouse, UniProt P41274 1-309); assay: flow cytometry, detected with anti mouse Fc antibody
# T7 construct: whole, on cells
# T7 sequence (looked up): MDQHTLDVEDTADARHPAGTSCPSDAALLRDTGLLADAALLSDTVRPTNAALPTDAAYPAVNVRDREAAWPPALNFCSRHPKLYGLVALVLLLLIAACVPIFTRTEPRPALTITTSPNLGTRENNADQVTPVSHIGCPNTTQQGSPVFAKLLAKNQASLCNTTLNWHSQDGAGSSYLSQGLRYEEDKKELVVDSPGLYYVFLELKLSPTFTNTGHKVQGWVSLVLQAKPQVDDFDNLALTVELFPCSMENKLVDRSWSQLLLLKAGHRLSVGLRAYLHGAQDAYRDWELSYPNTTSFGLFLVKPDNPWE
# Procedure: Cells were incubated with the CD137 antigens for 1 hour, and then a fluorescently labelled anti mouse Fc fragment antibody was used to detect cell binding.
# Chain of human CD137 expressed on cells (Q07011 24-255): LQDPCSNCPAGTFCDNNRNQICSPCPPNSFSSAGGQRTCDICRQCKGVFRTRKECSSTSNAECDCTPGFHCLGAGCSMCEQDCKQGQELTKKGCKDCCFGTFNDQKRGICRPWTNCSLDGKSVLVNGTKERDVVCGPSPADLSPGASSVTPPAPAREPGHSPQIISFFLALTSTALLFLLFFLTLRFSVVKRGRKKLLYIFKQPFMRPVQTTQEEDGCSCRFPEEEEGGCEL
# Chain of mouse CD40 (P27512 24-193 limits assumed): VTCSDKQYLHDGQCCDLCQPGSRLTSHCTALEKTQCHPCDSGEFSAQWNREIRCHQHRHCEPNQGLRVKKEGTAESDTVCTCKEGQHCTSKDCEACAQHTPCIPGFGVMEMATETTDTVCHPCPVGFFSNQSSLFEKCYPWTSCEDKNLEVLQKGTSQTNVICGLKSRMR
# Chain of human CD40 (P25942 21-193 limits assumed): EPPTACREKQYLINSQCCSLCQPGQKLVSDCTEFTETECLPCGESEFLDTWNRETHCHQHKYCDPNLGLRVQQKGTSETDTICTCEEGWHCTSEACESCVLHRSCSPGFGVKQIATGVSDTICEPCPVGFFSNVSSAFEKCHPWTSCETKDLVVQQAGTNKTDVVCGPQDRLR
# T3 sequence (Q07011 24-186): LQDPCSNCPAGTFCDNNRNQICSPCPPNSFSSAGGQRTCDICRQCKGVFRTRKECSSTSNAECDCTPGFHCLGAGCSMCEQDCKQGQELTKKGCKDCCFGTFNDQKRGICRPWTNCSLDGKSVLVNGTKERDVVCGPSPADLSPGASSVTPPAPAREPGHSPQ
# T5 sequence (Q07011 24-186): as above
binder,measurement,setting,value
B1,"NF-κB luciferase reporter EC50, HEK.FRT.luc.hCD137 cells, crosslinked with Protein L (+XL)",[1],32.6 nM
same,binding result,[2],no binding (tested: 1 µM)
same,binding result,[3],no binding (tested: 1 µM)
same,binding result,[4],no binding (tested: 1 µM)
same,human monomeric CD137 KD fold difference relative to human dimeric KD,[5],> 200 fold
same,Kd,[6],1.3 nM
same,Kd,[7],1.5 nM
B2,binding result,[8],no binding (tested: at least 1 µM)
same,binding result,[9],no binding (tested: at least 1 µM)
same,"NF-κB luciferase reporter EC50, HEK.FRT.luc.mCD137 cells, crosslinked with Protein L",[10],1.44 nM
same,"NF-κB luciferase reporter, fold-change in activity upon Protein L crosslinking",[10],27 fold
B3,binding result,[11],binds

# Reference: US12319739 (F STAR DELTA, dated 2025)
